The values that follow come from article PMC6303017, “Effects of RNA structure and salt concentration on the affinity and kinetics of interactions between pentatricopeptide repeat proteins and their RNA ligands”.

For series [1], the target named is T1, HCF152 (UniProt Q9SF38 66-778).
T1 sequence: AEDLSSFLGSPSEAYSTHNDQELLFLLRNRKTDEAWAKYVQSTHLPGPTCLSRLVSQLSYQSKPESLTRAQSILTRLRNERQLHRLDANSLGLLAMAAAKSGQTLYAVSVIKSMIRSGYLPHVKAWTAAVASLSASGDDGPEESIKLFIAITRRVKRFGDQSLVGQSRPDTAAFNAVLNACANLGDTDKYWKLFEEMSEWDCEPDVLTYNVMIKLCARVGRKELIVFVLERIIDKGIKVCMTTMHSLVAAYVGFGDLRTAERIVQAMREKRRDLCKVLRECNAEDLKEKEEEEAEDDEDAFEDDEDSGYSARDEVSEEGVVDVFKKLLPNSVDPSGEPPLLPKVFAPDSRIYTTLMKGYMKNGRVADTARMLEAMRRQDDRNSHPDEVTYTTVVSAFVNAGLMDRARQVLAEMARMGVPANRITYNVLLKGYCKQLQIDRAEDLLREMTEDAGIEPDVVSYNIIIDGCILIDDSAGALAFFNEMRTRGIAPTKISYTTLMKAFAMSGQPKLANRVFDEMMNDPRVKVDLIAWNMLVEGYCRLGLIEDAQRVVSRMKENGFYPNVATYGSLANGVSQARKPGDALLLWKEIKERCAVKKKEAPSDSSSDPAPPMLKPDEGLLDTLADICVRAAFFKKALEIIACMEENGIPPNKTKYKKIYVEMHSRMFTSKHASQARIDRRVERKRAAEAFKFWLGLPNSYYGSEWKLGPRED
Put plainly: SPR; 150 mM NaCl; half-life ~2 h; KD ~30-fold lower than earlier EMSA; EMSA: 40 mM Tris-HCl pH 7.5, 140 mM NaCl, 10% glycerol, 4 mM DTT, 0.1 mg/mL BSA, 0.5 mg/mL heparin, RNAsin, 5 pM RNA, 25 C, 30 min; SPR: 100 mM HEPES pH 7.5, 150 mM NaCl, 3 mM EDTA, 1 mM 2-mercaptoethanol, 0.005% P20. To be noted: protein: recombinant; tags: MBP fusion, MBP cleaved off; label: 3' biotin, 6-carbon linker.

The target of series [2] is T2, PPR10 (UniProt B8Y6I0 96-786).
T2 sequence: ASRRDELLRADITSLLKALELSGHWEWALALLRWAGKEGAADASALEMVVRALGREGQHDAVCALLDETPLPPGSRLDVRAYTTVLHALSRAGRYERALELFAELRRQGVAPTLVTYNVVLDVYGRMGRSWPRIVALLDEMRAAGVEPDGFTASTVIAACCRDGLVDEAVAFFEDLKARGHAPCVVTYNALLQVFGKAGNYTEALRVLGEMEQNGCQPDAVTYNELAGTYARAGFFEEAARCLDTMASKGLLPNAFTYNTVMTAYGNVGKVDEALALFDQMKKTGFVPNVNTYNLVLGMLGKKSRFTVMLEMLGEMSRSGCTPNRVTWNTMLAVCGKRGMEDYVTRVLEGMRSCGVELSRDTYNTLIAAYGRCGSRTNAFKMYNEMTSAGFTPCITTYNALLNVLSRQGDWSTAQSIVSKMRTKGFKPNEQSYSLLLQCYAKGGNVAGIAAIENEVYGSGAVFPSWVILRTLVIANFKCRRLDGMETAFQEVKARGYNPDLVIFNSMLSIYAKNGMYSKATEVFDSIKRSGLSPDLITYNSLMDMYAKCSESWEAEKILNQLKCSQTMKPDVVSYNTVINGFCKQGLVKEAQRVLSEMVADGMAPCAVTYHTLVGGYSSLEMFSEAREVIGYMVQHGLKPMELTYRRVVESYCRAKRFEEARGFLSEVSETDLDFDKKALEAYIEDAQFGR
Briefly: SPR; 150 mM NaCl; ka ~2e7 M-1s-1; EMSA: 40 mM Tris-HCl pH 7.5, 140 mM NaCl, 10% glycerol, 4 mM DTT, 0.1 mg/mL BSA, 0.5 mg/mL heparin, RNAsin, 5 pM RNA, 25 C, 30 min; SPR: 100 mM HEPES pH 7.5, 150 mM NaCl, 3 mM EDTA, 1 mM 2-mercaptoethanol, 0.005% P20. The following applies: protein: recombinant; tags: MBP fusion, MBP cleaved off; label: 3' biotin, 6-carbon linker; unstructured.

Series [3] has as its target T2, PPR10. Put plainly: EMSA; 0.5 mg/mL heparin, 140 mM NaCl; EMSA: 40 mM Tris-HCl pH 7.5, 140 mM NaCl, 10% glycerol, 4 mM DTT, 0.1 mg/mL BSA, 0.5 mg/mL heparin, RNAsin, 5 pM RNA, 25 C, 30 min; SPR: 100 mM HEPES pH 7.5, 150 mM NaCl, 3 mM EDTA, 1 mM 2-mercaptoethanol, 0.005% P20. To be noted: protein: recombinant; tags: MBP fusion, MBP cleaved off; label: 5' 32P; unstructured.

Series [4] addresses T1, HCF152. Put plainly: filter binding; 30 min and overnight (~13 h); tighter apparent KD overnight; EMSA: 40 mM Tris-HCl pH 7.5, 140 mM NaCl, 10% glycerol, 4 mM DTT, 0.1 mg/mL BSA, 0.5 mg/mL heparin, RNAsin, 5 pM RNA, 25 C, 30 min; SPR: 100 mM HEPES pH 7.5, 150 mM NaCl, 3 mM EDTA, 1 mM 2-mercaptoethanol, 0.005% P20. The following applies: protein: recombinant; tags: MBP fusion, MBP cleaved off; label: 5' 32P.

UGGUAGUUCGACGUGGAUUUU (ssRNA) [petB SPR RNA]: the binding result in the series with HCF152 [1] is “binds”.

For GAUUGUAUCCUUAACCAUUUCUUUU (ssRNA) [atpH SPR RNA], the Kd with PPR10 [2] was roughly 0.01 nM.

For AUUGUAUCCUUAACCAUUUCUUU (ssRNA) [atpH-23mer], the Kd in the series with PPR10 [3] was roughly 0.05 nM.

As for GGUAGUUCGACCGUGGA (ssRNA) [petB RNA (GMS/FB)], the binding result with HCF152 [4] is listed as “binds”.
